Molecular target: recombinant protein fibronectin-collagen peptide (FCP) (human)
Experiment: SPR; OpenSPR (Nicoya); FCP fixed on an NTA sensor chip by capture coupling, integrin β3 injected sequentially; PBS running buffer, 25 °C; binding and dissociation 250 s each; regeneration with hydrochloric acid pH 2.0; one-to-one diffusion-corrected model, TraceDrawer (the discussion says integrin β3 was the captured one)

Chain of integrin β3 (P05106 27-718): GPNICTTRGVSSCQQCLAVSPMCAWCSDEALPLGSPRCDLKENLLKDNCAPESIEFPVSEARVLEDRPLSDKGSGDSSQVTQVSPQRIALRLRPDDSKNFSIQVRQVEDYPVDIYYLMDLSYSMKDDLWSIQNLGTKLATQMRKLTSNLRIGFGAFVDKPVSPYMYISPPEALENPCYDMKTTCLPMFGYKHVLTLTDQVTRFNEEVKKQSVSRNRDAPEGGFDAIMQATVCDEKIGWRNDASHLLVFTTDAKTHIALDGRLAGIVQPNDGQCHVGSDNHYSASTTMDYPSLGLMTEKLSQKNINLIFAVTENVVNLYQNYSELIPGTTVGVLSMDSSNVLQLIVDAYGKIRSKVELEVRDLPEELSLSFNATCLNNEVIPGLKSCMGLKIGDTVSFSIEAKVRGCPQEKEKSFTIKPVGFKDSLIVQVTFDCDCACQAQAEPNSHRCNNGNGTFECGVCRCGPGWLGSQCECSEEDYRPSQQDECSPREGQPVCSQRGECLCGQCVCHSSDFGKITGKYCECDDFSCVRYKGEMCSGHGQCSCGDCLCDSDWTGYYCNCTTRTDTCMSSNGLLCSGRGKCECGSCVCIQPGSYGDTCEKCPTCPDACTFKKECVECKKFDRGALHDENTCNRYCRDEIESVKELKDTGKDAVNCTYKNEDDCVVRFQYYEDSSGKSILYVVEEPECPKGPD

Substance: integrin β3 (from UniProt P05106 27-718) (receptor)
- Kd: 0.0537 µM

From publication PMC9151557
